Four molecules from US20260139046A1 (ATTOVIA THERAPEUTICS, published 2026) can be followed below.

Test [1] has as its target T1, human IL31 (human, UniProt Q6EBC2 24-164, biotinylated in the SPR assay (site not stated)).
T1 sequence: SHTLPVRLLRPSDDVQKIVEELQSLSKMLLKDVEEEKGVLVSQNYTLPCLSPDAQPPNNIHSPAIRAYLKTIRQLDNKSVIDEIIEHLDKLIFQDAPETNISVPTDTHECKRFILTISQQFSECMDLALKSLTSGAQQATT
The test is described as follows: cell-based or functional assay.

In test [2] the target is T1, human IL31. The test is described as follows: cell-based or functional assay. The source holds these as a separate data set.
The target in test [3] is T1, human IL31. The test is described as follows: cell-based or functional assay. The source holds these as a separate data set.
In test [4] the target is T1, human IL31. The test is described as follows: binding kinetics after 3x freeze/thaw; method and target not restated (SPR on IL31 presumed).
Test [5] deals with T1, human IL31. The test is described as follows: KD of wild-type and humanized co-binders; method not restated (SPR as in Example 4 presumed).
For test [6], the target named is T1, human IL31. Put plainly: SPR (Biacore T200, Biotin CAPture): biotinylated IL31 captured, co-binder Fc fusion as analyte. As to the method:
(§1) Binding affinity was measured using Biotin CAPture Kit (Cytiva Life Sciences) and the BIACORE™ T200 SPR system (Cytiva Life Sciences). Initially, Biotin CAPture Reagent (Cytiva Life Sciences) was flowed to immobilize 3 nM biotinylated IL31 (ligand). 3 nM, 9 nM, and 27 nM anti-IL31 co-binders were flowed as analyte with 180 seconds association and running buffer was flowed with 3000 seconds dissociation. The sensor chip was regenerated by guanidine hydrochloride and sodium hydroxide.
Background: SPR reads the build-up and loss of mass on a sensor chip optically.

Test [7] deals with T1, human IL31. The test is described as above. As for the experimental part:
as §1
The source holds these as a separate data set.

The target in test [8] is T1, human IL31. The test is described as follows: binding kinetics, large-scale material, baseline sample; method and target not restated (SPR on IL31 presumed).

B1: 1C10 co-binder + huIgG1Fc_YTE_C→S (Fc fusion)
chain: EVQLVESGGGLVQAGGSLRLSCAASGGTFSSYTMGWFRQAPGKEREYVGGISSSGYVMYNSESMKGRFTISRENAKNMVYLQMNSLKPEDTAVYYCAAGTIGRPYDYWGQGTQVTVSSGGGSGGGGSGGGGSGGGGSGGGGSGGGGSGGGGSGMTGVKLEESGGGLVQPGGSLILSCAASGDISSIVAMGWYRQAPGKQRELVAAITSGGRTHYRDSVKGRFTISGNNDNSALYLHMNSLKPEDTAVYYCAADRGWTSVGEYDYWGKGTLVTVSSEPKSSDKTHTCPPCPAPELLGGPSVFLFPPKPKDTLYITREPEVTCVVVDVSHEDPEVKFNWYVDGVEVHNAKTKPREEQYNSTYRVVSVLTVLHQDWLNGKEYKCKVSNKALPAPIEKTISKAKGQPREPQVYTLPPSRDELTKNQVSLTCLVKGFYPSDIAVEWESNGQPENNYKTTPPVLDSDGSFFLYSKLTVDKSRWQQGNVFSCSVMHEALHNHYTQKSLSLSPGK
notes: VHH1-linker-VHH2-Fc; also called 1C10 WT; 1C10Fc
With B1, the “Activity (IC50, nM); pSTAT3 assay per Table 4” value (shortened to “Activity … per Table 4”) in test [1] is 8.5 nM. Besides, the “Activity (IC50, nM), pSTAT3 assay (P^3)” value in test [2] worked out at 8.5 nM. The “EC50 (pSTAT3) nM” value in test [3] was found to be 6.57 nM. The Kd (usually the equilibrium constant for the complex coming apart) in test [4] amounted to 3.45 nM; in test [5], 0.0126 nM; in test [6] it was 0.0587 nM; in test [7], 0.0587 nM; in test [8], 1.5 nM. Also, the koff (commonly the rate constant with which the complex falls apart) in test [4] was 0.000675 s⁻¹; in test [8] it was 0.00033 s⁻¹. For the same molecule, the values for the kon in test [4] and in test [8] were 196000 M⁻¹ s⁻¹ and 220000 M⁻¹ s⁻¹, respectively.

B2: 1D1 co-binder + huIgG1Fc_YTE_C→S (Fc fusion)
chain: EVQLVESGGGLVQAGGSLRLSCAASGGTFSSYAMAWFRQAPGKEREYVAGISSSGYTLYKSDSMKGRFTISRENAKNMVYLQMNSLKPEDTAVYSCAAGIFGRPYEYWGQGTLVTVSSGGGSGGGGSGGGGSGGGGSGGGGSPSMGVKLEESGGGLVQAGGSLILSCAASGDIPSIVAMGWYRQAPGKQRELVAAITSGGRTHYRDSVKGRFTISGNNDNSALYLHMNSLKPEDTAVYYCAADMGLTAVGEYDYWGQGTQVTVSSEPKSSDKTHTCPPCPAPELLGGPSVFLFPPKPKDTLYITREPEVTCVVVDVSHEDPEVKFNWYVDGVEVHNAKTKPREEQYNSTYRVVSVLTVLHQDWLNGKEYKCKVSNKALPAPIEKTISKAKGQPREPQVYTLPPSRDELTKNQVSLTCLVKGFYPSDIAVEWESNGQPENNYKTTPPVLDSDGSFFLYSKLTVDKSRWQQGNVFSCSVMHEALHNHYTQKSLSLSPGK
notes: VHH1-linker-VHH2-Fc; also called 1D1 WT; 1D1Fc
For the molecule B2, in test [1], the “Activity … per Table 4” value came out at 6.7 nM. Also, the “Activity (IC50, nM), pSTAT3 assay (P^3)” value in test [2] is 6.7 nM. The “EC50 (pSTAT3) nM” value in test [3] was determined as 8.42 nM. Besides, the dissociation constant Kd in test [4] turned out to be 3.22 nM; in test [5], 0.0153 nM; in test [6], 0.024 nM; in test [7] it was 0.024 nM; in test [8], 1.94 nM. Moreover, the koff in test [4] amounted to 0.000628 s⁻¹; in test [8], 0.000405 s⁻¹. Moreover, the on-rate (kon) (in general, the rate constant with which the complex forms) came to 195000 M⁻¹ s⁻¹ in test [4] and 209000 M⁻¹ s⁻¹ in test [8].

B3: 21H7 co-binder + huIgG1Fc_YTE_C→S (Fc fusion)
chain: EVQLVESGGGLVQAGGSLRLSCAASGGTFSSYTMGWFRQAPGKEREYVGGISSSGYVMYNSESMKGRFTISRENAKNMVYLQMNSLKPEDTAVYYCAAGTIGRPYDYWGQGTQVTVSSGGGSGGGGSGGGGSGGGGSGGGGSGGGGSGGGGSEGVGLVESGGGSVQAGDSLRLSCAASGRTFSTYIIGWFRQAPGKEREFVASISWGGRGTYYADSVKDRFTISRDNPKNMVYLQMNSLKPEDTAVYYCAAGDLPGGRRALDYDYWGQGTLVTVSSEPKSSDKTHTCPPCPAPELLGGPSVFLFPPKPKDTLYITREPEVTCVVVDVSHEDPEVKFNWYVDGVEVHNAKTKPREEQYNSTYRVVSVLTVLHQDWLNGKEYKCKVSNKALPAPIEKTISKAKGQPREPQVYTLPPSRDELTKNQVSLTCLVKGFYPSDIAVEWESNGQPENNYKTTPPVLDSDGSFFLYSKLTVDKSRWQQGNVFSCSVMHEALHNHYTQKSLSLSPGK
notes: VHH1-linker-VHH2-Fc; also called 21H7 WT; 21H7Fc
Take B3: the “Activity … per Table 4” value in test [1] was found to be 8.4 nM. Further, the “Activity (IC50, nM), pSTAT3 assay (P^3)” value in test [2] worked out at 8.4 nM. For the same molecule, the “EC50 (pSTAT3) nM” value in test [3] was 6.65 nM. Moreover, the Kd in test [4] was 19.4 nM; in test [5], 0.0104 nM; in test [6] it was 0.0148 nM; in test [7] it was 0.0148 nM; in test [8], 18.6 nM. The koff in test [4] is 0.00435 s⁻¹; in test [8] it was 0.00423 s⁻¹. The kon in test [4] was 224000 M⁻¹ s⁻¹; in test [8], 228000 M⁻¹ s⁻¹.

B4: 1H5 co-binder + huIgG1Fc_YTE_C→S (Fc fusion)
chain: EVQLVESGGGSVQAGGSLRLSCAASGGTFSSYAMAWFRQAPGKEREYVAGISSSGYTLYKSDSMKGRFTISRENAKNMVYLQMNSLKPEDTAVYSCAAGIFGRPYEYWGQGTQVTVSSGGGGSGGGGSGGGGSRSVGVQLVESGGGLVQAGGSLRLSCAASGSISSIHAMGWYRQAPGKQRELIAAITSGGRRHYRDSVKGRFTISGDNAKTNLYLQMNSLKPEDTAVYYCAADTGRVAVGEYDYWGQGTLVTVSSEPKSSDKTHTCPPCPAPELLGGPSVFLFPPKPKDTLYITREPEVTCVVVDVSHEDPEVKFNWYVDGVEVHNAKTKPREEQYNSTYRVVSVLTVLHQDWLNGKEYKCKVSNKALPAPIEKTISKAKGQPREPQVYTLPPSRDELTKNQVSLTCLVKGFYPSDIAVEWESNGQPENNYKTTPPVLDSDGSFFLYSKLTVDKSRWQQGNVFSCSVMHEALHNHYTQKSLSLSPGK
notes: VHH1-linker-VHH2-Fc
Take B4: the “Activity … per Table 4” value in test [1] worked out at 6.1 nM. Moreover, the “Activity (IC50, nM), pSTAT3 assay (P^3)” value in test [2] turned out to be 6.1 nM. Further, the Kd in test [4] amounted to 0.619 nM; in test [6], 0.0032 nM; in test [7] it was 0.0032 nM; in test [8] it was 0.136 nM. In addition, the off-rate constant (koff) is 0.000551 s⁻¹ in test [4] and 0.000138 s⁻¹ in test [8]. For the same molecule, the kon in test [4] was 890000 M⁻¹ s⁻¹; in test [8], 1.01e+06 M⁻¹ s⁻¹.
